Measured values reported in patent publication US20230365705A1 (DYNAMICURE BIOTECHNOLOGY, published 2023).
Values belong to the binder of their own block, whether it stands above or below them.

How the values were obtained:
[1] = target: T1, Human CD93 on cells (human CD93 expressing CHO cells; HUVEC, U937 and KG1a cells) (human, UniProt Q9NPY3 22-652); experiment: flow cytometry blocking assay, CHO-hCD93 cells, antibody 50 ug/ml then MMRN2 0.5 ug/ml, APC-A
T1 construct: whole, on cells; also called hCD93 expressing CHO cells; hCD93 CHO cells
T1 sequence (looked up): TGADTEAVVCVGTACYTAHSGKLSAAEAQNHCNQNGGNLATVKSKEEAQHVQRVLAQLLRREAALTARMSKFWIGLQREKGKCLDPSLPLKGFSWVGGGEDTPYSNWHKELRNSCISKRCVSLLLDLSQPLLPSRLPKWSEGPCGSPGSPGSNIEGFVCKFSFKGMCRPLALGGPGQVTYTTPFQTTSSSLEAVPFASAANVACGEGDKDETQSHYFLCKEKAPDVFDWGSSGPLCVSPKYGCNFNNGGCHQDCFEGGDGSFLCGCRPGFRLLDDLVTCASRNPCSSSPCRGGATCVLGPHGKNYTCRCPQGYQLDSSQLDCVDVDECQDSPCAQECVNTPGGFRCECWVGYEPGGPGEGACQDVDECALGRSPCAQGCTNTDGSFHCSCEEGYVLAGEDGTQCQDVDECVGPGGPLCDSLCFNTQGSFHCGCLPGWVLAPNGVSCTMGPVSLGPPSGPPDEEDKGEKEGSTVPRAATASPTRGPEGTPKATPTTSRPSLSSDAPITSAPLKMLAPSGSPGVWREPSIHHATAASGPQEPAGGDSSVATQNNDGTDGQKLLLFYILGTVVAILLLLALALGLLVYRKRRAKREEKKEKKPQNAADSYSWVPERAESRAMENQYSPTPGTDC
Protocol: (§1) After incubation, the cells were washed with FACS buffer and incubated with anti-His conjugated APC or streptavidin conjugated APC at a ratio of 1:500 for 30 minutes at 4° C. After washing with FACS buffer twice, the samples were analyzed and data acquired in NovoCyte Flow.

[2] = target: T1, Human CD93 on cells (human CD93 …); experiment: flow cytometry blocking assay, CHO-hCD93 cells, antibody 50 ug/ml then MMRN2 0.1 ug/ml, APC-A
Protocol: as §1

[3] = target: T1, Human CD93 on cells (human CD93 …); experiment: flow cytometry titration, HUVEC cells
Protocol: (§2) HUVEC cells were detached by incubation with TrypLE reagents (Thermo Fisher), which preserves the integrity of CD93 on the cell surface. Then the cells were incubated with serial diluted anti-CD93 antibodies for 30 minutes at 4° C. After washing by FACS buffer, the cells were incubated with Alexa Fluor 647 conjugated anti-human IgG (Jackson ImmunoResearch) for 30 minutes in 4° C. After washing by FACS buffer twice, the samples were acquired in NovoCyte Flow Cytometer and analyzed by NovoExpress software.

[4] = target: T1, Human CD93 on cells (human CD93 …); experiment: flow cytometry titration, CHO-hCD93 cells; antibody stored 4 weeks at 40 C
Protocol: as §2, with “Human CD93 expressing CHO cells” for “HUVEC cells”, “minutes in” for “minutes at”, “minutes at” for “minutes in”

[5] = target: T1, Human CD93 on cells (human CD93 …); experiment: flow cytometry blocking assay, CHO-hCD93 cells; blocked ligand hMMRN2 495-674 at 0.1 ug/ml; antibody stored 2 weeks at 40 C
Protocol: Then the cells were incubated with hMMRN2₄₉₅₋₆₇₄ at 0.1 μg/ml. […] After washing with FACS buffer twice, the samples were analyzed, and data acquired in NovoCyte Flow. Recombinant his tagged hMMRN2₄₉₅₋₆₇₄ was produced internally in E. Coli following routine procedure.

[6] = target: T2, Human CD93 recombinant protein (Sino Biological Inc, Catalog #12589-H08H) (human, UniProt Q9NPY3 22-580); experiment: BLI (Octet QKe), biotinylated human CD93 on streptavidin biosensors
T2 construct: Biotinylated (EZ-LINK NHS-PEG4 biotin) in the BLI assays; also called hCD93; His-tagged human CD93
T2 sequence (looked up): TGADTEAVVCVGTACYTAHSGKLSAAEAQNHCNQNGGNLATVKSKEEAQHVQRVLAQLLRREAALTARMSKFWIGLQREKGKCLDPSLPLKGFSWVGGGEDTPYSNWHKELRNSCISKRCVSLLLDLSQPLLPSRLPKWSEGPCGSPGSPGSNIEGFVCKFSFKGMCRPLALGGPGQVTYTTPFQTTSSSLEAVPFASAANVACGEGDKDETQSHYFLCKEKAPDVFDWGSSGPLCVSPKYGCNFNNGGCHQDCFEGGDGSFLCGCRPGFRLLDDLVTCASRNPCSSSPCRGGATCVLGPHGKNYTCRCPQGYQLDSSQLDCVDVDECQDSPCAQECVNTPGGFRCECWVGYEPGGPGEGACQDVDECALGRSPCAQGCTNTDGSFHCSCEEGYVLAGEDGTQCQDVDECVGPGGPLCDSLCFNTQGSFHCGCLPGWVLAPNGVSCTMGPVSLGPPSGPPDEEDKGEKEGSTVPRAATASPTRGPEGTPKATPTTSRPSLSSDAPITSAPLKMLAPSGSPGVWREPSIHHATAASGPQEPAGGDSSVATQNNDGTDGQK
Protocol: The binding affinity of anti-CD93 antibodies was determined with bio-layer interferometry using Octet QKe (Fortebio). […] Human CD93 recombinant protein (Sino Biological Inc, Catalog #12589-H08H) was biotinylated using EZ-LINK NHS-PEG4 biotin (Thermo Fisher Scientific). Streptavidin biosensors (Fortebio) were used to load biotinylated CD93 protein (300 seconds in 5 μg/ml). Baseline was stabilized for 60 seconds in 1×kinetics buffer (Fortebio) before anti-CD93 antibodies, at a serial dilution, were allowed to associate for 300 seconds with captured protein. Then the sensors were dissociated in 1× kinetics buffer for 600 seconds. […] (FIG. 41).

M3 gate, % of cells positive for MMRN2 after the antibody [1]: 65.9%
M3 gate, % of cells positive for MMRN2 after the antibody [2]: 37.7%
B1: 16E4 (hybridoma) (antibody, IgG2a, V domains shown)
VH: QVQLQQPGAELVKPGASVKLSCKASGYTFTSYWMHWVKQRPGQGLEWIGEIDPSASYTYYNQKFKGKATLTVDKSSSTAYMQLSSLTSEDSAVYYCARSVYYGNKYFDVWGAGTTVTVSS
VL: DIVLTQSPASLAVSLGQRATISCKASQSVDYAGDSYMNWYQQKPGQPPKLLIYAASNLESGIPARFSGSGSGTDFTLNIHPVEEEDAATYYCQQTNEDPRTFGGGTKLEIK
notes: also called 16E4 mAb; 16E4 mIgG2a

EC50 [3]: 1.34 nM
EC50 [4]: 0.195 nM
IC50 [5]: 0.133 nM
Kd [6]: 0.472 nM
koff [6]: 0.000321 s⁻¹
kon [6]: 681000 M⁻¹ s⁻¹
B2: h7F3 (humanized 7F3, VH3+VL3) (antibody, human IgG1, V domains shown)
VH: QVQLVQSGAEVKKPGASVKVSCKASGYTFTDYEMHWVRQAPGQGLEWMGGIDPETGDTAYNQNFKGRVTMTTDTSTSTAYMELRSLTSDDTAVYYCTNYGNLYYYAMDYWGQGTSVTVSS
VL: EIVLTQSPSSLSASVGDRVTITCRASSSVSSSYLHWYQQKPGKAPKLLIYSTSNLAFGVPSRFSGSGSGTSYTFTISSLQPEDIATYYCQQYSGYPLTFGSGTKLEIK
notes: also called humanized 7F3-hIgG1
